In patent US20050053613A1 (MOUNT SINAI SCHOOL OF MEDICINE, published 2005):

B1: human CD8α expressed on murine T cell hybridoma (3G8) (receptor)
chain: not shown
notes: whole, on cells; also called CD8α chains
B2: CEA liberated by PIPLC from CEA-GFP transfected 293T cells (other, UniProt P06731 35-685, looked up)
chain: KLTIESTPFNVAEGKEVLLLVHNLPQHLFGYSWYKGERVDGNRQIIGYVIGTQQATPGPAYSGREIIYPNASLLIQNIIQNDTGFYTLHVIKSDLVNEEATGQFRVYPELPKPSISSNNSKPVEDKDAVAFTCEPETQDATYLWWVNNQSLPVSPRLQLSNGNRTLTLFNVTRNDTASYKCETQNPVSARRSDSVILNVLYGPDAPTISPLNTSYRSGENLNLSCHAASNPPAQYSWFVNGTFQQSTQELFIPNITVNNSGSYTCQAHNSDTGLNRTTVTTITVYAEPPKPFITSNNSNPVEDEDAVALTCEPEIQNTTYLWWVNNQSLPVSPRLQLSNDNRTLTLLSVTRNDVGPYECGIQNELSVDHSDPVILNVLYGPDDPTISPSYTYYRPGVNLSLSCHAASNPPAQYSWLIDGNIQQHTQELFISNITEKNSGLYTCQANNSASGHSRTTVKTITVSAELPKPSISSNNSKPVEDKDAVAFTCEPEAQNTTYLWWVNGQSLPVSPRLQLSNGNRTLTLFNVTRNDARAYVCGIQNSVSANRSDPVTLDVLYGPDTPIISPPDSSYLSGANLNLSCHSASNPSPQYSWRINGIPQQHTQVLFIAKITPNNNGTYACFVSNLATGRNNSIVKSITVSASGTSPGLSA
notes: Soluble form in the supernatant of PIPLC treated transfectants; also called B9 reactive material

Key:
[1] = target: B2; assay: absorption on transfected hybridoma cells, immunoblot with mAb B9
Description: (§1) CEA exists as a GPI anchored glycoprotein on the surface of IECs. This molecule can be cleaved using the enzyme PIPLC. […] Absorption of CEA by either CD4 or CD8 was determined by immunoblotting with mAb B9. […] These findings are consistent with functional properties previously ascribed to gp180.

[2] = target: T1, human CD4 expressed on murine T cell hybridoma (3G4) (human, UniProt P01730 26-458); assay: absorption of PIPLC-released CEA on transfected hybridoma cells, immunoblot with mAb B9
T1 construct: whole, on cells
Description: as §1

| Binder | binding result [1] | binding result [2] |
| --- | --- | --- |
| B1 | binds |  |
| B2 |  | no binding |
